Columns and labels:
EphB2-Fc [1] = test: SPR, EphB2-Fc immobilised on CM5, 100 nM analyte
EphB2-Fc [2] = test: SPR competition on immobilised EphB2-Fc; competitor ephrinB2-Fc (246 nM), 0-1020 nM GST-Azu 88-113
EphB2-Fc [3] = test: SPR competition on immobilised EphB2-Fc; competitor ephrinB2-Fc (246 nM) preincubated with 0-1020 nM GST-Azu 88-113

Chain of GST-Azu 88-113 (chain): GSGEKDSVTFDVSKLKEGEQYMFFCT
Chain of EphB2-Fc (P54763 19-543): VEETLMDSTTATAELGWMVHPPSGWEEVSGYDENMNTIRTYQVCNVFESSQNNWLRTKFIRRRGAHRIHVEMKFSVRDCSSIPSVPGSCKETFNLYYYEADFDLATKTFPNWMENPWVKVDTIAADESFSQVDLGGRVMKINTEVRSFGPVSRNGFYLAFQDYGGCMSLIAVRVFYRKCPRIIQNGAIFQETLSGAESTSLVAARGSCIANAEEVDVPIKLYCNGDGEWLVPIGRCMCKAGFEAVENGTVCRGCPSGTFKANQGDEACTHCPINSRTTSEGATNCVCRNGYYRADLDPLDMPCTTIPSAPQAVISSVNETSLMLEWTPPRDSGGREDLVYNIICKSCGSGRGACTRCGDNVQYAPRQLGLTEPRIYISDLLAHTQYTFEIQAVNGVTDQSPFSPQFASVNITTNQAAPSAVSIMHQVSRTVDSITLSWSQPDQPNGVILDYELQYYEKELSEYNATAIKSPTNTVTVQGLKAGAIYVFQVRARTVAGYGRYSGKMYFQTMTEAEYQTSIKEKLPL
Chain of GST-Azu 36-89 (B3EWN9 36-89): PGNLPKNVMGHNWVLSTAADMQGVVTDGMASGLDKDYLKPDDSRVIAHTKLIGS

| Substance | Req in RU (EphB2-Fc [1]) | level at which the inhibition levels off (EphB2-Fc [2]) | reduction of total protein binding to the surface (EphB2-Fc [3]) |
| --- | --- | --- | --- |
| GST-Azu 36-89 (from UniProt B3EWN9 36-89) | 57 RU |  |  |
| GST-Azu 88-113 |  | 40 to 50% | < 60% |

Source: US20180319847A1
